Measured values from patent publication US20190309079A1 (Regeneron, published 2019).
Where a chain is given by its changes, count along the chain named.

Legend:
[1] = target: T1, wild-type LEPR on HEK293 reporter cells (UniProt P48357 22-1165, limits assumed); assay: cell-based or functional assay
T1 sequence (looked up): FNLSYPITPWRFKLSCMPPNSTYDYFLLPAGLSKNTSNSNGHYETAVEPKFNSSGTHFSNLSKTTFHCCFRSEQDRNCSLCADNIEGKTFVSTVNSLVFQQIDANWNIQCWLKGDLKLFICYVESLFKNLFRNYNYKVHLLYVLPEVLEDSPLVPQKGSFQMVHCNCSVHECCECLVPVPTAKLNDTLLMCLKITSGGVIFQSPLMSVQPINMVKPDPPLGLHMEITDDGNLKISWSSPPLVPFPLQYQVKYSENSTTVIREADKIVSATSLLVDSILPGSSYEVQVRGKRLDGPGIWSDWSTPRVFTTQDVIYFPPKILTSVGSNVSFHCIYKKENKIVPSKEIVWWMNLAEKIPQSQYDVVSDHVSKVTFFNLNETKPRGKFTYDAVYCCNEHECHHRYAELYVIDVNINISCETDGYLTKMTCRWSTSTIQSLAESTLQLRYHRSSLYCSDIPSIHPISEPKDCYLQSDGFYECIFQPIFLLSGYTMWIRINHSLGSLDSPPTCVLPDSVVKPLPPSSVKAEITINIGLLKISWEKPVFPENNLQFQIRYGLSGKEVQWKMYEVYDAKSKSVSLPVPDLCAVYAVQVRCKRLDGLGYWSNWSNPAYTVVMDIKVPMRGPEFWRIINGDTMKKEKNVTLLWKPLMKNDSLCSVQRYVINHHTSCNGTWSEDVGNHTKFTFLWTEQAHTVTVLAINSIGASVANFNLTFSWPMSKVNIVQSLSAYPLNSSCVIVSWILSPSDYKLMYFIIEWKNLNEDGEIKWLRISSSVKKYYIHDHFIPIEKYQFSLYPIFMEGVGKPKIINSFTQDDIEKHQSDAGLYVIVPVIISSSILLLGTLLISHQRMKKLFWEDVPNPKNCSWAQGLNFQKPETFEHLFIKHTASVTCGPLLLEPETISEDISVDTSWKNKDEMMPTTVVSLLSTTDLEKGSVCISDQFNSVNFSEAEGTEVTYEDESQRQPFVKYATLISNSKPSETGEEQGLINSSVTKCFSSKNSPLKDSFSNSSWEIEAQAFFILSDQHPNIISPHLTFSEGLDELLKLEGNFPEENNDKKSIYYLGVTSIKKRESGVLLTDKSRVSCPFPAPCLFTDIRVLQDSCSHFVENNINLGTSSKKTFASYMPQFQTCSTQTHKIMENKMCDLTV

[2] = target: T2, LEPR-P316T (signaling-impaired mutant) on HEK293 reporter cells (human, UniProt P48357 22-1165); assay: cell-based or functional assay
T2 sequence: T1 sequence (looked up) with P295T

B1: H4H16679P2 (antibody, V domains shown)
VH: QVQLVESGGGVVQPGRSLRLSCTASGFTFSSYAMYWVRQAPGKGLEWVSVIYYDGSYKYYADSVKGRFTISRDNSKNTLYLQMDSLRAEDTAVYYCASYNWNYWYFDFWGRGTLVTVSS
VL: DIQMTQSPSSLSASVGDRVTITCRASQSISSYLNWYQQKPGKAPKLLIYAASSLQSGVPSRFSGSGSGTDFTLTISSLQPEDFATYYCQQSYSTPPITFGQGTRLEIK
For B1, the “EC50 (read off the curve), pSTAT3 Y705/STAT3 densitometry” value [1] was roughly 3e-10 M and the “EC50 (read off the curve), pSTAT3 Y705/STAT3 densitometry” value [2] was roughly 3e-10 M.
